The source of these data is the nanobody polyreactivity screen of Harvey et al. (2022).

The nature of the series: yeast display, Sf9 membrane polyspecificity reagent, FACS + sequencing; frameworks hold sequencing errors. A digest of the protocol: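 Galactose induction of a Saccharomyces cerevisiae BJ5465 synthetic nanobody display library ran 36–48 hours. The cells were then stained for 1 hour at 4 °C with 10% biotinylated, detergent-solubilized Sf9 membrane reagent, pulled down on streptavidin microbeads and FACS-sorted into low and high (top ~1%) gates on expression and reagent-binding fluorescence. Labels for polyreactivity follow the gate of origin.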
With “QVQLVESGGGLVQAGGSLRLSCAASGLIFYWYAMGWYRQAPGKERELVAAITWSGGITYYADSVKGRFTISRDNAKNTVYLQMNSLKPEDTAVYYCAADDDYGDVTYDYWGQGTQVTVSS”, the “polyreactivity (PSR sort gate)” value is “low polyreactivity”.

“QVQLVESGGGLVQAGGSLRLSCAASGLIIAHYAMGWYRQAPVKERELVAAITSGSSTYYADSVKGRFTISRDNAKNNVYLQMNSLKPEDTAVYYCAAKETHSAYRSSGNYWGQGTQVTVSS”: the “polyreactivity (PSR sort gate)” value is reported as “low polyreactivity”. With “QVQLVESGGGLVQAGGSLRLSCAASGLIIDGYAMGWSRQAPGKERELVATITVSGTSTYYADSVKGRFTISRDNAKNTVYLQMNSLKPEDTAVYYCDTDRNYGYYFVEYDHDYWGQGTQVTVSS”, the “polyreactivity (PSR sort gate)” value is on record as “low polyreactivity”. On to “QVQLVESGGGLVQAGGSLRLSCAASGLIIGYNAMGLYRQAPGKERELVAAISRSGTHTYYADSVKGRFTISRDNAKNTFNLQMNSLIPEDTAVYYCNATNRRWHRPYSTYWYYYWGQGTQVTVSS”, for which the “polyreactivity (PSR sort gate)” value is recorded as “high polyreactivity”. In the case of “QVQLVESGGGLVQAGGSLRLSCAASGLIITAYAMGWYRQAPGKERELVAAITGSGGRTYYADSVKGRFTISRDNAKNTVYLQMNSLKPEDTAVYYCAADFPARGSSTSDYWGQGTQVTVSS”, the “polyreactivity (PSR sort gate)” value is reported as “high polyreactivity”.

For “QVQLVESGGGLVQAGGSLRLSCAASGLIIWYYAMGWYRQAPGKERELVAAISRSGGRTYYADSVKGRFTISRDNAKNTVYLQMNSLKPEDTAVNYCNADVYRGYDYWGQGTQVTVSS”, the “polyreactivity (PSR sort gate)” value is “high polyreactivity”.

Regarding “QVQLVESGGGLVQAGGSLRLSCAASGLIIYRYGMGWYRQAPGKERELVAAISYSGSSTYYADSVKGRFTISRDNAKNTVYLQMISLKPEDTAVYYCAAQSTRPYPGRYYYWGQGTQVTVSS”, the “polyreactivity (PSR sort gate)” value is “high polyreactivity”.

On to “QVQLVESGGGLVQAGGSLRLSCAASGLIIYYYAMGWYRQAPGKERELVAAISGSSGASTYYADSVKGRFTISRVNAKNTVYIQMNSLKPEDSAVYYCAADRGYWRYDYWGQGTQVTVSS”, for which the “polyreactivity (PSR sort gate)” value is listed as “low polyreactivity”. For “QVQLVESGGGLVQAGGSLRLSCAASGLILANYAMGWYRQAPGKERELVAAISSSGGSTYYADSVKGRFTISRDNAKNTVYLQMNSLKPEDTAVYYCAAYPLYRRRWTGDYWGQGTQVTVSS”, the “polyreactivity (PSR sort gate)” value was “high polyreactivity”.

Take “QVQLVESGGGLVQAGGSLRLSCAASGLILKYYAMGWYRQAPGKEREFVAAITRRGGITYYADSVKGRFTISRDNAKNTVYLQMNSLKPEDTAVYSCAADPILGSLAYWRYSYPLYDYWGQGTQVTVSS”: the “polyreactivity (PSR sort gate)” value was “low polyreactivity”. As to “QVQLVESGGGLVQAGGSLRLSCAASGLILNYYTMGWYRQAPGKERELVATISSSTGSTYYADSVKGRFTISRDNAKNTVYLQMNSLKPEDTAVYYCAADHWSYWQIYDYWGQGTQVTVSS”, the “polyreactivity (PSR sort gate)” value is “low polyreactivity”. “QVQLVESGGGLVQAGGSLRLSCAASGLILRKYAMGWYRQAPGKEREFVAAITQTGSRTYYADSVKGRFTISRDNAKNPVYLQMNSLKPEDTAVYYCAADLPRWGSYGYGKMDHWGQGTQVTVSS”: the “polyreactivity (PSR sort gate)” value is listed as “high polyreactivity”. The same measure for “QVQLVESGGGLVQAGGSLRLSCAASGLILSSNAMGWYRKAPGQERELVAAITWDGDRTYADSVKGRFTISRDNAKNTVYLQMNSLKPEDTAVYYCAARIGTGVLTGRGANSHMDYWGQGTQVTVSS”: “low polyreactivity”; for “QVQLVESGGGLVQAGGSLRLSCAASGLILYTYAMGWSRQAPGQVRELVAAINSGGRTYYADAVKGRFTISRDNAKNTVYLQMNSLKPEDTAVYYCAADYGSRVRGFNYWGQGTQVTVSS”: “low polyreactivity”. With “QVQLVESGGGLVQAGGSLRLSCAASGLILYWYAMGWYRQAPGKERELVAAISISGGSTYYADSVKGRFTISRDNAKNTVYLQMNSLKPDDTAVYYSAAVYFYSWEGDGDYWGLGTQVTVSS”, the “polyreactivity (PSR sort gate)” value was “low polyreactivity”. “QVQLVESGGGLVQAGGSLRLSCAASGLISESYAMGWYRQAPGKERELVAAISSGGSTYYADSVKGRFTISRDNAKNTVYLQMNSLKPEDTAVYYCNATGYKYNYGHAYYYAVDYWGQGTQVTVSS”: the “polyreactivity (PSR sort gate)” value is on record as “low polyreactivity”.

Regarding “QVQLVESGGGLVQAGGSLRLSCAASGLIVPWYDMGWYRQAPGKERELVAAINWRGGSTYYADSVKGRFTISRDNAKNTVYLQMKSLKPEDTAVYYCAACYLHRDSYIYDYWGQGTQVTVSS”, the “polyreactivity (PSR sort gate)” value was “low polyreactivity”.

For “QVQLVESGGGLVQAGGSLRLSCAASGLIYFYAMGWYRQAPGKERELVAAISSTGGRTYYADSVKGRFTIARDNAKNTVYLQMNSVKPEDTAVYYCNVLVYNVYTRGYYSYKYYFWGQGTQVTVSS”, the “polyreactivity (PSR sort gate)” value is reported as “high polyreactivity”. Then “QVQLVESGGGLVQAGGSLRLSCAASGLIYPVYAMGWYRQAPGKEREFVAAITYDGGNTYYADSVKGRFTISRDNAKNTVYLQMNSLKPEDTAVYYCAAEGVELISTRDPHDDYWGQGTQVTVSS”, with “low polyreactivity”. “QVQLVESGGGLVQAGGSLRLSCAASGLIYSYNAMGWTRQAPGKERELVAAISRSGGTPYYADSVKGRFTISRDNANNTVYLQMNSLKPEDTEVYYCAAEIRFLSWEYDYWGQGTQVSVSS”: the “polyreactivity (PSR sort gate)” value was “high polyreactivity”. Take “QVQLVESGGGLVQAGGSLRLSCAASGLIYSYYVMGWNRQAPGKERELVPAINESGGRTYYADSVKGRFTISRDNAKNTVYLEMNSLKPEDTAVYYCAASVLNKIQGYRDYYCGQGTQVTVSS”: the “polyreactivity (PSR sort gate)” value was “low polyreactivity”. For “QVQLVESGGGLVQAGGSLRLSCAASGLKFGVNPMGWYRPAPGKERELVAAISRDSDTNYADSVKGRFTISRDNAKNTVYLQMISLKPEDTAVYYFNAYSEWPVPSPPRSQSLDYWGQGTQVTVSS”, the “polyreactivity (PSR sort gate)” value is recorded as “low polyreactivity”.

Regarding “QVQLVESGGGLVQAGGSLRLSCAASGLMVTYYAMCGYRPAPGKARELVAAINYSGGSTYDADSVKGRFTISRDNAKTTVYLLMNSLKPEDTAVYYCAARRFTQTEGPMGYWGQGTQVTFSS”, the “polyreactivity (PSR sort gate)” value is “low polyreactivity”. Then “QVQLVESGGGLVQAGGSLRLSCAASGLNFGVNAMGLYRQAPGKERELVAAISRSGGSTYYADSVKGRFTISRDNAKNSVYLQMNSLKPEDTAVYYCAAAAWDPKGSRYDYWGHGTQVTVSS”, with “low polyreactivity”; and “QVQLVESGGGLVQAGGSLRLSCAASGLNFSYYAMGWYRQAPGKERELVAAINSGGSTYYADSVKGRFTISRDNAKNTVYLQMNRLKQEDTAVYYCAAHLWYHGHLFDYWGQGTQVTVSS”, with “high polyreactivity”. Turning to “QVQLVESGGGLVQAGGSLRLSCAASGLNFYDNVMGWSRPAPGKEREFVAAITSIGGSTYYADSVKGRFTISRDNAMNTVYLQMISLKPEDTAVYYCIGKSKYYSPNYDYWGQGTQVTVSS”, the “polyreactivity (PSR sort gate)” value is reported as “low polyreactivity”. With “QVQLVESGGGLVQAGGSLRLSCAASGLNFYGYFMGWYRQAPGKERELVAAISATGGSTYYADSVKGRFTISRDTAKNTVYLQMNSLKPEETAVYYCAATYYSYTWFSQYYYWGQGTQVTVSS”, the “polyreactivity (PSR sort gate)” value is “high polyreactivity”. Then “QVQLVESGGGLVQAGGSLRLSCAASGLNFYRNAMGWSRQAPGKERELVAAISASGGRTYYADSVKGRFTISRDNAKNTVYLPMNSLKPEDTAVYYCAAKSLWLSMDYWGQGTQVTVSS”, with “high polyreactivity”. As for “QVQLVESGGGLVQAGGSLRLSCAASGLNQANYAMVWYRQAPGQEREMVAAISSSGGSTYYADSVKGRFTISRDNAKNTVYLQMNSLKPEDTAVYYCAAYPLYRRSWTGDYWGQGTQVTVSS”, the “polyreactivity (PSR sort gate)” value is “high polyreactivity”.

For “QVQLVESGGGLVQAGGSLRLSCAASGLPFRYNVMGWYRQAPGKETALGATISTSAGDTYYADSVKGRFTISRDNAKNTVYLQMNSLKPEDTAVYYCNAEAWYSVEYDDWGQGTQVTVSS”, the “polyreactivity (PSR sort gate)” value was “low polyreactivity”. Consider “QVQLVESGGGLVQAGGSLRLSCAASGLSFSYYAMVWYRQAPGKERELVAAITSSGGNTYYADSVKGRFTISRDNANNTVYLQMNSLKPEDTAVYYCNDRRYLRGYGYGYWGQGTQVTVSS”, for which the “polyreactivity (PSR sort gate)” value is recorded as “high polyreactivity”. Consider “QVQLVESGGGLVQAGGSLRLSCAASGLSLDVNVMGWYRPAPGKERELVAGIRSDSRTNYADSVKGRFTISRDNAKNTVYLQMNRLKPEDTAVYYCATRDKYISYYTYPYYSWGQGTQVTVSS”, for which the “polyreactivity (PSR sort gate)” value is on record as “low polyreactivity”. Then “QVQLVESGGGLVQAGGSLRLSCAASGLSSLRMLWDGRDRRLGKKGSWLPLITSGGDSTNYADSVKGRFTISRDNAKNTVYFQMNSLKPEDTAVYYCAADLDYPYGYLGQGTQVTVSS”, with “low polyreactivity”; and “QVQLVESGGGLVQAGGSLRLSCAASGLTFADNTMGWYRQAPGKERELVAAIDWSGGGTDYADSVKGRFTISRDNAKNTDYLQMNSLKPEDTAVYYCNAERTSWEDDYWGQGTQVTVSS”, with “low polyreactivity”.

Regarding “QVQLVESGGGLVQAGGSLRLSCAASGLTFAFNAMGWYRPAPGKERELVAAISKSGGSTYYADSVKGRFTISRDNAKNTVYLQMNSLKPEDTAVYYCAAGFWYYSYPTLYEYGYWGQGTQVTVSS”, the “polyreactivity (PSR sort gate)” value is reported as “low polyreactivity”.

For “QVQLVESGGGLVQAGGSLRLSCAASGLTFAKYAMGWYRQAPGKERELVAAIRSGDDTTYADSVKGRFTISRDNAMNTVYLQMISLKPEDTAVYYCAARPIHYPPYYYWGQGTQVTVSS”, the “polyreactivity (PSR sort gate)” value is “high polyreactivity”. For “QVQLVESGGGLVQAGGSLRLSCAASGLTFALYAMGWYRQAPGKERELVAAITGSGGSTYYADSVKGRFTISRDTAKNSVYLQMNSLKPEDTAVYYCNKLFYRWRIVDKYYYCGQGTQVTVSS”, the “polyreactivity (PSR sort gate)” value is “high polyreactivity”. The same measure for “QVQLVESGGGLVQAGGSLRLSCAASGLTFASNAMGWYRQAPGKERELVAAISWSDGSTYYADSVKGRFTISRDNAKNTVYLQMNSLKPEDTAVYYCAAESYFFSPRTREKFDYWGQGTQVTVSS”: “low polyreactivity”; for “QVQLVESGGGLVQAGGSLRLSCAASGLTFASYAMGWYRPAPGKERELVARISRSGGSTYYADSVKGRFTISRDNAKNTVYLQMNSLKPEDTAVYYCAADYIFRRYPVGGIYDYDYWGQGTQVTVSS”: “high polyreactivity”. Regarding “QVQLVESGGGLVQAGGSLRLSCAASGLTFAYNTMGWYRQAPGKEREFVASISSSGGNTYYADSVKGRFTISRDNAKNTVYLQMNSLKPEDTAVYYCAAKKKYHYVASYKRFEYWGQVTQVTVSS”, the “polyreactivity (PSR sort gate)” value is “low polyreactivity”.
